Laboratory results: US20250313632A1
Blank lines part the entries; values can stand above or below the molecule they belong to.

How the values were obtained:
[1] = target: human B7-H3 expressed on A375 tumor cells (human) (UniProt Q5ZPR3); experiment: flow cytometry on A375.S2 cells, MFI(647); unit from the axis Conc (nM); fit value of a flat control curve
[2] = target: human B7-H3 expressed on A375 tumor cells (human) (UniProt Q5ZPR3); experiment: flow cytometry on A375 cells, MFI(647); unit from the axis Conc (nM); fit value of a flat control curve
[3] = target: human B7-H3 expressed on A375 tumor cells (human) (UniProt Q5ZPR3); experiment: flow cytometry on A375 cells, MFI(PE); unit from the axis Conc (nM); fit value of a flat control curve
[4] = target: human B7-H3 expressed on A375 tumor cells (human) (UniProt Q5ZPR3); experiment: as above; remark: listed apart in the source
[5] = target: human B7-H3 expressed on A375 tumor cells (human) (UniProt Q5ZPR3); experiment: as above; remark: listed apart in the source
[6] = target: human B7-H3 protein (human) (UniProt Q5ZPR3); experiment: Octet (BLI) epitope binning on captured human B7-H3; competitor AHP05562
[7] = target: human B7-H3 expressed on A375 tumor cells (human) (UniProt Q5ZPR3); experiment: flow cytometry on A375 cells, MFI(PE); unit from the axis Conc(nM)
[8] = target: human B7-H3 (4Ig) protein (his tag) (human) (UniProt Q5ZPR3); experiment: SPR (Biacore T200), antibody captured on Protein A chip, B7-H3 injected, 1:1 model
[9] = target: human B7-H3 protein (human) (UniProt Q5ZPR3); experiment: Octet (BLI) epitope binning on captured human B7-H3; competitor AHP06345 (self)
[10] = target: human B7-H3 protein (human) (UniProt Q5ZPR3); experiment: Octet (BLI) epitope binning on captured human B7-H3; competitor CA84D

EC50 [1]: 0.044 nM
EC50 [2]: 0.066 nM
EC50 [3]: 192 nM
EC50 [4]: 36 nM
EC50 [5]: 2.1 nM
Molecule: hIgG1 (antibody)

inhibition ratio [6]: -6.36%
EC50 [7]: 2.7 nM
Kd [8]: 1.47 nM
koff [8]: 0.000254 s⁻¹
kon [8]: 173000 M⁻¹ s⁻¹
inhibition ratio [9]: 91.8%
inhibition ratio [10]: -3.77%
B1: AHP06345 (antibody, V domains shown)
VH: QVQLVQSGAEVKKPGESLRISCKGSGYSFTSYWISWVRQMPGKGLEWMGRIDPSDSYTNYSPSFQGHVTISADKSISTAYLQWSSLKASDTAMYYCARHTGYYGSGIGMDVWGQGTLVTVSS
VL: HVILTQPPSVSAAPGQKVTISCSGSSSNIGNNYVSWYRQLPGTAPKLLIYDNNQRPSGIPDRFSGSKSGTSATLGITGLQTGDEADYYCATWDSSLGVVVFGGRTKLTVL
